From the DeepSol protein solubility set

Experiment: soluble on expression in E. coli; label from the status in PepcDB or PDB records

Soluble on expression in E. coli, not soluble:
MGSDKIHHHHHHMIIHKFIIHVLDKNSDTPILNDFEGRVSQDMDLFFQKKISKVSRDNDIRTAVFNDYSNNLIKKCCEQIIYDESSFLNSSKEIAAYLFDVMKLNATLESCDLAICLYSQKDEKKVAILKLDYNKSYTHSIEFKDDKFNIQMSKNEINIQETKTIKIGAIIGLSGVNDEYHLKVLDKDAEKEEVNSKFVTEFLNATKVKDDKYRTKMFKTFVDAYIANLYSDMKQGEDVRSILLYMLREKQNLDINEFADKAIKDDLKDSFKDHAEEKGIESFNIDKKWVEKNLKNRHIKTDTGFEVKGKMDDFEDFMKYGIRHNGNGTVDIVIKNVNFYDEK, MGSDKIHHHHHHMIIQSKLIRAALVCAAKNDVRYYLNGLHITPKHIEATNGSVALRMAHGIRTKKNIIVQFEGGVPAKAETTELIFSKEPIAVHRDQFQRRLSITGIKLVDGCFPDLDRIIPKKFDRCTHPVLQAGYLSYPEKMFGRERKFIPVQLRPSGDGQAVRIQFDSIINSMYGNPEFVVMPCRDHGDFNVAQEHPE, MGSDKIHHHHHHMIKCIDVNDLKVGMYIHDLNCDWMSHPFLVNRFKVKDESEIRKIADAGIHEVYIDTRKGMDLPSARSEGEVRKQLESELREIASRERTVTRHVEAAEEFGRAQTIHHEANQIIRDILQDVRLGKQVELEQVEPQVEKLTGSILRNGGALLSLCRIKDKDNYTFQHSVSVGALMVSFCNALGMSKEVIHHAGIGGMLHDIGKMKVPDSILNKPGKLTEQEFMVMKCHVVESQKILHATRGISETAVLVAGQHHERHDGSGYPAGLKGEEISQLGQMAAIVDVYDALTSNRCYHKGMPPTDALRKIYEWSKFHFNPELVQAFMRVIGIYPVGTLVRLESGRLGVVVEQNEDNLVSPKVKVFFSTKSNTHIPPEVVDLSRRMGFGGGDRIVKHESPEKWKIDPLRFL, MGSDKIHHHHHHMIKLIATDIDGTLVKDGSLLIDPEYMSVIDRLIDKGIIFVVCSGRQFSSEFKLFAPIKHKLLYITDGGTVVRTPKEILKTYPMDEDIWKGMCRMVRDELPACDYFAATPDFCFAEDGGSPIFHLLRDSYGFEMREVDDITRLDRNDIIKFTVFHPDKCEELCTPVFIPAWNKKAHLAAAGKEWVDCNAKGVSKWTALSYLIDRFDLLPDEVCCFGDNLNDIEMLQNAGISYAVSNARQEVIAAAKHTCAPYWENGVLSVLKSFL, MGSDKIHHHHHHMIKVGQTTEVENFLSNHPEVEAIDVLISDLVGFARGKRIEKSSLEKIYSSGLNMPATIFSMNVLGETIEECGLGQDIGEPDMVCKPIANTLHMASWHDRPIAQVLMSMFNHDGTPFFADPRNILSNVVRQLAEINLYPVVAVELEFYLLDKNKDNKGNLQAPISPKTGKRDEHTQVYSVDTLNDYSALLDDINRVCIEQNVPADTAVAECAPGQFEINLKHEADPVAACDNAILLKRIIKTVADKHNFDATFMAKPYSNEAGSGMHVHASLLDECGNNVFADEHNDYNETLEHAIGGMLELMPASMPLLCPNVNSYRRFMPGYYVAMAKNWGVDNRTVALRLPRGHKNATRIEHRVSGADANPYLVMAVILASIHHGITNKIKPINPTVGNAFDDDCEALPLKLDRALAELEKDQILTSYLGEEFTKNYHTVKQKELEQFDMHISELEVKWYLSNS, MGSDKIHHHHHHMILGIDVGGTSVKFGLVTPEGEIQNATRFMTADWVNGIGFVESMKLEIGNFLKQYPIVKGVGIGWPGLVSLDRTKVILLPNIPSVVNVPIVEILRSEFPHIHFKIENDAKCAALGEYYFGENKRMQTFILLALGTGVGSGVMMNGKLFIGGRGNGTEVGHMLTTRGKSLENQVGINHLIAYTHEQLALDVAKKSSLHTIAELSPKVIADHAAQGDALALAVWADIGTIIGESLVNIVRVMDLNNILLGGGISGAFDYFVPNLKKAMLEHLPTYYTDDMYIGKATLENDAGLLGAAGLIMEAI, MGSDKIHHHHHHMIMLEKPTCRPNNPNFSSGPCSKRPGWTLEVLKNALVGRSHRSREAALRLAEIVDLTREVLEVPSDYRIGIVPASDTGAVEMSLWSLLGERGVDMAAWESFGSGWITDVVEKLKLSDVRRFEAPYGELPDLTQMDFDRDVVFTWNGTTSGVRIPNADFIPERRAGLTICDATSAAFAQNLDFSKLDVVTFSWQKVLGGEAAHGMLILSPRAVERLESYVPTWPMPQIFCLTKDGKLNENIFKGVTINTPSLLCIEDFLDALKWAKAQGGLHALMARVEKNFAVLDAFVRKTPWLEYLAKDPQVRSNTSVCLDIVDPVVTALDTEKRVSFIKAIVNRLDEEEAAYDIGSYRDAPPGLRIWTGITIEASDLEILTSWLEWAFQVEKAQL, MGSDKIHHHHHHMINIIICEGKKSERVILNDYINTFFYNYNFEYNIKEFENGGDLLKKYPNNVDIIFMDIDLNDENGFNVSKEIKKFDESVRIIFVSSSNKYIKKGYEIGVYRYLEKPLKYSLFKEAISSYLKECYKNEAILSIKCKCKIYFIKVDDILYLEVLKNDLTIHTEKGIYTFKSSMKEIESNLEEHNFFRCHKSYLINLMKVNMLDIENNIVFINQNSIIVSRYKIKLLREKLNSCLVDVII, MGSDKIHHHHHHMIPLHTSMRGLRCFCVAAECLSFKETAKRLYLTPSAVSHQIKQLEESLNQSLFIRQTRAVTLTEVGARFYQAIEPVMQQLVNTVSEFNQSDRMLEVSISMPEFFASELFMPKLIGWSSKYPNINLKLETIKSRSDMIKHTDASIMLSGKQQTNADVYDLFPITYIPACNAQLHAELSSQGFKALTQVPLILHKARPYAWHQWAENVGFDAFQPKQIIQLDSMFSVARAAEQGLGIALIPLPISQAWFDNGTLLSLFPHPLFSHDRYYLIRHTNEQQRPEVQLLIDWILKSFHDESH, MGSDKIHHHHHHMIQVLNLTTPETIKNYLHEALGKIEPFEQCILLDYPDHANIGDNLIWLGELLYLHNTRQSQITYNASVENFSVQEMDKCKSSCEIPIFLHGGGNLGDLWLKFQNFREYIISEYKENPIIIFPQSIYFQEEDNLIKAARIFNSHPNLTIFVRDNYSYQLATNYFSNCRIIKSPDAAFQLVNTPGIAAAYQNKSSILYHFRNDKELNLNQAGSPHTLDLPNLIVEDWASYKYESDSYKELPHNAVIQSFARVFHGWEQGKLFPDEWITRQIWKYFHPYTTAFSQSYNPESHRKAWSYMYQGVYQFKQHRLIITNRLHGHILSTLMGIPHIFLPNSYHKNEAFYEAWTYQIPFCRFVKDPEKIADTVRELIEISEIAKN, MGSDKIHHHHHHMIRNCFLCAAKTDNVFSSTWMLPGLAPTEIGFSICPKCGSVCQSPSVSYDDMMTIYSSIAVYTNPGRQGLPSSAKIRDLDEQIQFIKRGIGHLPKSAMQIGSSDGYTLSRFRQAGVELVMGVEPGSTSIEIAKRLYNIDCIHGTAEDFETDKDFELILLTHVLEHIYEPQVTLDKCRKIQNTPGEKFIYVEVPLMATAASLCPGFLTFEHVNYYTKENLICSLTQAGYWPVSVVEHFNSNLSPIIGILASTREQHHYDVMKMDVQLNRKRLSEYRQKELSYWQNCVDCIKVSLQQSQRIFLWGAGIHTCQLLANTDLLDHSRIFGLTDTSSLKWGLRQGEWICQDPQQIDWQVGDTVLISSYASEKEIFDALYWLRDKGVNTLRLHNVDDTRAIV, MGSDKIHHHHHHMIRSLWIAKTGLDAQQMQMDVIANNLANVSTNGFKKTRAVFEDLLYQNIRQPGAQSSQQTQLPSGLQLGTGVRPVATERIHIQGNLQQTGNNKDVAISGEGFFQVLLPDGSTAYTRDGAFQLDNQGQLVTASGFTVQPAIIVPPNALSLTVGRDGTVSVVLPDNPNNAVQIGTFQLATFINPAGLQSRGENLYIETAASGPANINQPGLNGTGLLVHQYLETSNVNVAEELVSMIQTQRAYEINSKAISTSDQMLQRLSQL, MGSDKIHHHHHHMISEYEDIGLHNTCSEDGSFDVVLDSITNIAKYGMGIIAGVFIDMYSIIGNTDSKTIYTVRKGTLADYNARIIARSISGQVINTDPDTVVKMAEEGHMGLVGNEVQVGISYAEFAERLGIYAASCLIAARDQSFRSVLDQYQKGIEFIARNPEVSAEIISRKSNYYDEKTMKRIIGIYRHRLTTLRSDLERSISVYSAVEPSVYRLKILG, MGSDKIHHHHHHMISMKIQQILPADPAKAILIGRIWDPVSQGPRVVSVRGEDVFDLSPGVRTVAELMEYENPLEVVLQRTDAPRWDLAEIVEASQGTDRNRPHLLAPIDLQVVKACGVTFVESMIERVIEERCGGDFTRAAEVRKAVADVLGGSLDSVRPGSEQAREAKRILSAQGMWSQYLEVGLGPDPEVFTKAPVLSSVGYGSGVGIPSFSSWNNPEPELVLILNSAGDPLGATLGNDVNLRDVEGRSALLLGMAKDNNASCAIGPLIRLFHKDFTLESLRTEEITLTVEGTDGYRMEGRNSVARISRSFEELIKAAHGSHHQYPDGFALFTGTLFAPTQDRDTEGLGFTHKNGDIVTISSPQLGTLINQTQSTEETEPWTFGITALFRYLAQTGTGGAPSITGSPVSAAPGKSAGMKIGFRN, MGSDKIHHHHHHMITVNDLSVQFGKRILFQDVNLTFTPGNCYGIIGANGAGKSTMLRVISKQLDPTRGTVTLGPGERLSVLSQDHFAFDENTVMDTVLMGHSVLWAIMEEKNALYAKPDFSDEDGTRVAELEDKFAEMEGWNAESDAAMLLSGLGIKEDLHYMLMKDLSGKQKVRVLLARALYGKPDNLLLDEPTNDLDLETVSWLENYLSNFENTVLVVSHDRHFLDSVCTHTVDIDFGKVQQFSGNYSFWYESSQLALRQQQQQNKKAEEKRKELEEFIRRFSANVAKSKQTTSRKKMLEKLNIEEITPSSRRYPGILFTPGREPGNKILEVKGLTKSIEGQLLFRDLNFNVEKDDKIVFISRDPRAMTALFSIINGEMTPDEGTYEWGQTITTAYLPLDNSGYFNTDLNLVEWLSQFAKDTNEVFLKGFLGRMLFSGEEILKKASVLSGGEKMRCMISKMMMLDANTLVLDTPTNHLDLESIQAFNNTLKTYRGNVLFASHDHEFIQTVANRIIELTPNGIIDKIMDYDDYITDPIVAEMRQKLYGQ, MGSDKIHHHHHHMIVGFAGKLYKNYEKDGIELLKEVTDEALDIAGLNYADVDGIMANIGRGSFHGNRTYLNPPAQISEYFGIKPKIIEHVQYGGPSVLSMIYRAYKAIKAGDAETILCIQGGKISHLRDNHFQKTDIIDSPFDEYIKIYDQMSPISDYAMVAYRHSKLFGTTDEQRARIAVIQRYNASYNPKALFRNPITVEDVLKSRIVSYPLHLLEIVYPIDGFHVFVVSKRSSKSALRNIDILAYGEAHWPNPPAEWDDIIYTPTTESAKRASFDLNRVDAFQLYDSFTITVMLQMEDIGLVEKGKVGQFVESHDLSFKGDVPINTGGGSLNTGQPAYMSGGVILEEALLQLNDMANGHQVKGANVIFLNGIGWWSRRHSVTLVLGERK, MGSDKIHHHHHHMIVLIGGEKGGSGKSCLAQNIAVFLTTECNASVIMVDCDPQRTTSDWIQARNNNPKLASINCVQLYGKIRNDLLSLEQHYDVVIVDCGGQDNLALRATMSVAAYILMPLRPKRRDLKTVCHMDDIVATCKMINPKLRASFVITQCPNLPNQANRILEAKEVCKTYDINVLDAITYCRNVYDDSEESGLSVIEIDPNGKAADEIRTIACELFQVDCAANLEDRLHPALLAQSAGKGQMHNGLTNSGLTNNGLLNNGLLHQTQPTHLNTKQRGQNGTQRPQEKRYAI, MGSDKIHHHHHHMIVTEHSTRPLGEEGLANYVQRLRGQLSLTQKELSFKAGIHIQTIRKIEGGQTNRLNQKAKGGLAAALGIPPEYLDAAAKKVSPETITTLKFCPKCWTPGTTPDQMWTDLRSKYCFACGTALRNRCVSCNEPIMSLKFKFCPYCGANYKQNQTTS
